Positions count from the first letter of the chain named.
T1: LbuC2c2-WT (Leptotrichia buccalis, UniProt C7NBY4 1-1159)
T1 sequence: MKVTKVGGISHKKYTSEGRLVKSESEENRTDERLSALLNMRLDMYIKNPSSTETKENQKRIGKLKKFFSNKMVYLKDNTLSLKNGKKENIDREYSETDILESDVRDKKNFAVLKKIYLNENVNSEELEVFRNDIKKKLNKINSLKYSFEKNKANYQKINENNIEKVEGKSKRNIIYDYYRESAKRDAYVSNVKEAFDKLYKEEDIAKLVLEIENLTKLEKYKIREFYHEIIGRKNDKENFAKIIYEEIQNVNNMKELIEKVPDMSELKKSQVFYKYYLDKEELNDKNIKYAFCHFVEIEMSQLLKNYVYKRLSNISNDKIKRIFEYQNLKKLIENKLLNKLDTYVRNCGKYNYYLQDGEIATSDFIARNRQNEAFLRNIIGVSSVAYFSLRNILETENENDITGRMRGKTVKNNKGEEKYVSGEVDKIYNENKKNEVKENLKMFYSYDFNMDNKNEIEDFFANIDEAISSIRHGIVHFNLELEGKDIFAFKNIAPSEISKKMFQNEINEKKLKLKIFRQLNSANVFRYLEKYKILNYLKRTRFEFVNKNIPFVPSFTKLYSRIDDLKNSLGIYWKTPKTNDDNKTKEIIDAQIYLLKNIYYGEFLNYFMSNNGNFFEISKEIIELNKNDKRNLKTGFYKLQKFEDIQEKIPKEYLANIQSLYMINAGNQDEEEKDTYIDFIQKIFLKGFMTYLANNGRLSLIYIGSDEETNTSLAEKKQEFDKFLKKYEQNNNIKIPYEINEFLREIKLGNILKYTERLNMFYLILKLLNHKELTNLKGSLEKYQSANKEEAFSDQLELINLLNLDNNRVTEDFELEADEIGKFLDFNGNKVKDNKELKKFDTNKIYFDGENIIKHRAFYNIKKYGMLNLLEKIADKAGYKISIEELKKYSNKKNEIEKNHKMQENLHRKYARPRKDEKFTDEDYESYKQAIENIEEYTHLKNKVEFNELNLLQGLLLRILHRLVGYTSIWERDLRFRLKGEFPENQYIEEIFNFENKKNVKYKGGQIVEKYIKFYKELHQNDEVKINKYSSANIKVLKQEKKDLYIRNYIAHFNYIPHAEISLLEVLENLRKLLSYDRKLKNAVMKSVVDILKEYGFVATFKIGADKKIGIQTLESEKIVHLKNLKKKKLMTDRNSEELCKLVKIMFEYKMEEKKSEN

B1: mature crRNA-A_GG (crLbu_A_GG_AES432) (structured_RNA)
RNA: GGCCACCCCAAAAAUGAAGGGGACUAAAACAGGGGCAGAGAUGAUGACCCU
B2: mature crRNA-A_GA (crLbu_A_mature_GA_SCK340) (structured_RNA)
RNA: B1 RNA with G2A

Target: T1, LbuC2c2-WT
Assay: filter binding

Row | Binder | Kd [nM]
1 | B1 | 27.1 ± 7.5
2 | B2 | 4.65 ± 0.6

— PMC5576363
